Results taken from patent publication US20240287172A1 (SCIRHOM, published 2024).

T1: hiR2-FL-I483V-T7 (human, UniProt Q6PJF5 1-856)
T1 sequence: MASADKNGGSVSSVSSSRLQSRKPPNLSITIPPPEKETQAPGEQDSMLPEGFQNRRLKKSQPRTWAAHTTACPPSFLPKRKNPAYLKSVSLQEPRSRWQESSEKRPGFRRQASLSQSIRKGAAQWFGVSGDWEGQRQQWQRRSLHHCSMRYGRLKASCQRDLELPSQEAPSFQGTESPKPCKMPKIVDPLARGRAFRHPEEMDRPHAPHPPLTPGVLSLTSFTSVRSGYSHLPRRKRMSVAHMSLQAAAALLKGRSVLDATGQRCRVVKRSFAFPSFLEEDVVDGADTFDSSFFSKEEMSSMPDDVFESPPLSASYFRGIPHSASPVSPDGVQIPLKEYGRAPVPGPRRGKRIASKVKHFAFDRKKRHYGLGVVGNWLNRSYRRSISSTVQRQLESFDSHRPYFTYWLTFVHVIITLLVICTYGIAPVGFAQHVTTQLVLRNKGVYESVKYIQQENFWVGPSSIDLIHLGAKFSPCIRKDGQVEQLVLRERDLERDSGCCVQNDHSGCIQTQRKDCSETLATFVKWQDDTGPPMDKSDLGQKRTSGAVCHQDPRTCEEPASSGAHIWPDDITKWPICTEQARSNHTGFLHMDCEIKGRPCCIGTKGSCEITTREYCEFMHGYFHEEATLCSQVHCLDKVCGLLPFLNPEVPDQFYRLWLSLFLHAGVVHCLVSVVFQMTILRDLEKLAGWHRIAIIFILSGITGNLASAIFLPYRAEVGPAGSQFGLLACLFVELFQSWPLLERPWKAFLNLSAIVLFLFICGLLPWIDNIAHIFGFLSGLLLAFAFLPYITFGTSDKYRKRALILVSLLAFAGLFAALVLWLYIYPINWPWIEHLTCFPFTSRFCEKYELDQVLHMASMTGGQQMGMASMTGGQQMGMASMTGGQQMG

T2: hiR2-FL-T436V-T7 (human, UniProt Q6PJF5 1-856)
T2 sequence: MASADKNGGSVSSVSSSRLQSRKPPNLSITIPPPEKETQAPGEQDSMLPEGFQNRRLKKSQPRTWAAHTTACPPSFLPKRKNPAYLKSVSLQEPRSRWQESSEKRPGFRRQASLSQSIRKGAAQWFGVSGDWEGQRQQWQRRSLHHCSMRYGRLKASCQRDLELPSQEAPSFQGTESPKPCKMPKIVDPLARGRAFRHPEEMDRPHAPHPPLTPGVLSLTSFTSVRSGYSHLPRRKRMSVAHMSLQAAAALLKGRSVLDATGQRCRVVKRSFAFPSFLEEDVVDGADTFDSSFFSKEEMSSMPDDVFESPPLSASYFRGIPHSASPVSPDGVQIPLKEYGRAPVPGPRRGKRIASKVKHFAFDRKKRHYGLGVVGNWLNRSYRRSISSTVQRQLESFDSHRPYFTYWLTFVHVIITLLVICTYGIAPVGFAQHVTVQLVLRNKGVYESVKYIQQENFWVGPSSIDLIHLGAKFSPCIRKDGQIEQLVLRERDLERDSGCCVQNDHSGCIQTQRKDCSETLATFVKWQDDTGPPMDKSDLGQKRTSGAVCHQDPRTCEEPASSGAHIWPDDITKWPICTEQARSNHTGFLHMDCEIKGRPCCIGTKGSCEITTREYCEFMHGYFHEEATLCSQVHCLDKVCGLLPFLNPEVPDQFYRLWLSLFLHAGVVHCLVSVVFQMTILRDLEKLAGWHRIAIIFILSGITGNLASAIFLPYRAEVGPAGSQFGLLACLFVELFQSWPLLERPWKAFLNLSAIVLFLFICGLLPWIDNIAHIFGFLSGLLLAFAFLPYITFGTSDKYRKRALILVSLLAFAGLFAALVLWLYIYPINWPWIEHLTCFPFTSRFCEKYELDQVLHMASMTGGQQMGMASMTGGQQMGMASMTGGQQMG

B1: antibody 48 (antibody, V domains shown)
VH: QVQLQQSGTELVRPGTSVKVSCKASGYAFTNYLIEWVKQRPGQGLEWIGVINPGSGFTKYNEKFKGKATLTADKSSSTVYMHLSSLTSEDSAVYFCARGLYRAMDYWGQGTSVTVSS
VL: DIQMTQSPASQSASLGESVTITCLASQTIATWLAWYQQKPGKSPQLLIYGATTLADGVPSRFSGGGSGTKFSFKISSLQAEDFVSYYCQQLYSTPYTFGGGTKLEIK
notes: mouse IgG, kappa light chain; also called clone #48; purified antibody 48
B2: antibody 50 (antibody, V domains shown)
VH: QVQLQQSGAELVRPGASVKVSCKASGYAFSNYLIEWVKQRPGQGLEWIGVINPGSGFTKYNEKFKGKATLTADKSSSTAYMQLSSLTSEDSAVYFCARGLYRAMDYWGQGTSVTVSS
VL: DIQMTQSPASQSASLGESVTITCLASQTIGTWLAWYQQKPGKSPQLLIYAAASLADGVPSRFSGGGSGTKFSFKISSLQAEDFVNYYCQQIYSTPYTFGGGTKLEIK
notes: mouse IgG, kappa light chain; also called clone #50; purified antibody 50

Columns and labels:
hiR2-FL-I483V-T7 = target: T1, hiR2-FL-I483V-T7; experiment: FACS, MEF-DKO cells, 3 µg/ml
Text: (§1) In brief, immortalized MEF-DKO-hiR2-FL-A431S-T7, MEF-DKO-hiR2-FL-V434E-T7, MEF-DKO-hiR2-FL-T436V-T7, MEF-DKO-hiR2-FL-Q437D-T7, MEF-DKO-hiR2-FL-L438S-T7, MEF-DKO-hiR2-FL-S448N-T7, MEF-DKO-hiR2-FL-I452V-T7, MEF-DKO-hiR2-FL-I464E-T7, MEF-DKO-hiR2-FL-D465A-T7, MEF-DKO-hiR2-FL-I477M-T7, MEF-DKO-hiR2-FL-K479Q-T7, MEF-DKO-hiR2-FL-G481P-T7, MEF-DKO-hiR2-FL-I483V-T7, MEF-DKO-hiR2-FL-E484H-T7, MEF-DKO-hiR2-FL-Q485S-T7, MEF-DKO-hiR2-FL-L486F-T7, MEF-DKO-hiR2-FL-V487I-T7, MEF-DKO-hiR2-FL-R489S-T7, MEF-DKO-hiR2-FL-E490A-T7, MEF-DKO-hiR2-FL-D492E-T7, MEF-DKO-hiR2-FL-L493R-T7, MEF-DKO-hiR2-FL-R495K-T7 and MEF-DKO-hiR2-FL-D496H-T7 cells were harvested with 10 mM EDTA in PBS, washed and resuspended in FACS buffer (PBS, 3% FBS, 0.05% sodium azide), and seeded in Nunc U-bottom 96-well plates (Thermo Fisher Scientific, USA) at approximately 1×10⁵ cells per well. To pellet cells and remove supernatants, the plates were centrifuged at 1,500 rpm and 4° C. for 3 minutes. For primary staining, cells were resuspended in 100 μl per well of either FACS buffer alone (controls) or the purified antibodies 3, 5, 16, 22, 34, 42, 43, 44, 48, and 50 of the invention at 3 μg/ml in FACS buffer and incubated on ice for 1 hour. Afterwards, plates were centrifuged at 1,500 rpm and 4° C. for 3 minutes and washed twice with 200 μl per well of FACS buffer. For secondary staining, cells were spun down and resuspended in 100 μl per well of PE-conjugated goat anti-mouse IgG F(ab′)2 detection fragment (Dianova, Germany) diluted 1:100 in FACS buffer. Protected from light, the cell suspensions were incubated on ice for 1 hour. Plates were then centrifuged at 1,500 rpm and 4° C. for 3 minutes and washed three times with 200 μl per well of FACS buffer. Finally, cells were resuspended in 150 μl per well of FACS buffer and analyzed using a BD Accuri™ C6 Plus flow cytometer (Becton Dickinson, Germany).

hiR2-FL-T436V-T7 = target: T2, hiR2-FL-T436V-T7; experiment: FACS, MEF-DKO cells, 3 µg/ml
Text: as §1

Binder | loss of binding vs wild type (hiR2-FL-I483V-T7) [%] | loss of binding vs wild type (hiR2-FL-T436V-T7) [%]
B1 | ≥ 30 | ≥ 30
B2 | ≥ 30 | ≥ 30
